Measured values as given in US20030036699A1, “Methods and systems which use annexin for bioprofiling body lumen” (IMETRx, Inc., priority 2001, published 2003).
“And” between values parts separate entries of the source, which are not always exact repeats. Equal entries are not always repeated.

Test system: injured iliac vessel (arterial lesions)
Experiment: Tracer uptake by autoradiography of harvested aorta/iliac in balloon-injured, cholesterol-fed rabbits
Type: in vivo, rabbit
Conditions: for Figure of Merit (FOM): FOM=3(AUR)(PUR)(PBR); for Peak Uptake Ratio (PUR): peak lesion uptake vs uninjured zone, autoradiograph after single IV tracer dose; for Average Uptake Ratio (AUR): ratio of uptake in injured vs uninjured iliac vessel, autoradiograph about 2.5 h after single IV tracer dose
Protocol: Twenty-one adult male rabbits (weighing 3-4 kg at the time of tracer administration) were each were fed a high cholesterol, high fat diet for one week. Following one week of feeding, the rabbits were heparinized, anesthetized with ketamine HCI (25 mg/kg, IM) and medetomidine (0.5 mg/kg, IM), and underwent a left carotid arteriotomy. A 3-4F Fogarty catheter was advanced through the arteriotomy under fluoroscopic guidance into the right iliac artery. The Fogarty balloon was inflated with 0.4-0.75 ml of contrast media (to assist with localization by fluoroscopy) and withdrawn to the level of diaphragm. The balloon was deflated, the catheter returned to the distal iliac under fluoroscopic guidance, and the process repeated. There were six repetitions of the procedure. The neck incision was closed, and the animals received Baytril (5 mg IM) for 3 days following surgery to minimize infection. The animals were allowed to recover for four additional weeks while the high fat/high cholesterol diet was continued. The rabbits were divided into seven groups of […] each. On the day of study, a blood sample was drawn to measure lipids (cholesterol), and two groups of three animals received a single tracer dose intravenously via a marginal ear vein. The first group of three rabbits received annexin V-^99mTc.
Two hours after the radiopharmaceutical was administered, the animals were injected with Evans blue to identify the areas of injury an re-endothelialized aorta and iliac vessel. Thirty minutes later, the animals were anesthetized with sodium pentothal (35 mg/kg, IV) and, a thoracotomy and a midline laporotomy incision were performed. The left ventricle was identified, a trocar placed in the chamber, and a cannula placed in the abdominal aorta. The rabbit was partially exsanguinated, followed by infusion of 100 mL lactated Ringer's solution, and subsequently perfused with 0.4% paraformaldehyde (PFA) for about 5 min at about 100 mmHg pressure.
Following euthanasia, the aorta was harvested, photographed (SONY Mavica) and autoradiographed (Molecular Dynamics). An aliquot of blood and an aliquot of the injected dose were included on the plate to permit quantification. The autoradiographs were compared to the Evans Blue stained specimen to determine where the tracer had localized with reference to the injury. A ratio between uptake in the injured and uninjured iliac vessel was determined (average uptake ratio) using analysis option of ‘Image Quest^1.’ Additional ratios were created using the average counts in regions of interest placed over the area with peak uptake on the autoradiograph with each agent, and a ratio of peak uptake to the activity in an aliquot blood were determined.
To simplify the process of integrating the information, a Figure of Merit was calculated, using the formula: […]

albumin-^125I [reference compound]
Figure of Merit (FOM): 14 | activity in injured iliac vessel relative to uninjured site (animals 1 and 3): 3 fold | Peak Uptake Ratio (PUR): 5.1 and 5.2 | Average Uptake Ratio (AUR): 3.0

B1: annexin V-^99mTc (protein, UniProt P08758 2-320, looked up)
Annexin A5: AQVLRGTVTDFPGFDERADAETLRKAMKGLGTDEESILTLLTSRSNAQRQEISAAFKTLFGRDLLDDLKSELTGKFEKLIVALMKPSRLYDAYELKHALKGAGTNEKVLTEIIASRTPEELRAIKQVYEEEYGSSLEDDVVGDTSGYYQRMLVVLLQANRDPDAGIDEAQVEQDAQALFQAGELKWGTDEEKFITIFGTRSVSHLRKVFDKYMTISGFQIEETIDRETSGNLEQLLLAVVKSIRSIPAYLAETLYYAMKGAGTDDHTLIRVMVSRSEIDLFNIRKEFRKNFATSLYSMIKGDTSGDYKKALLLLCGEDD
modifications: technetium-99m label
notes: Annexin V, a human protein (36 kD) of 319 amino acids, radiolabeled with technetium-99m as tracer
Figure of Merit (FOM): 1701 | localization of tracer on the autoradiograph relative to lesion sites (autoradiograph compared with Evans Blue stained specimen): striking correlation between lesion sites and localization of annexin | Peak to Blood Ratio (PBR) (peak lesion uptake vs activity in an aliquot of blood): 4.5 | Peak Uptake Ratio (PUR): 15 | Average Uptake Ratio (AUR): 8.4
